This assay deals with D-galactose receptor (human (endogenous in SHIN3)). Briefly: flow cytometry on cells. A general note: In flow cytometry, cells or beads pass a laser one at a time.

“TAMRA conjugated avidin (from UniProt P02701 25-152) (ligand)” came in with a mean value of fluorescence (FACS flow cytometry) of 10.9.
